Assay results: publication PMC6770254
“And” between values parts separate entries of the source, which are not always exact repeats. Identical values can stand only once.

Tests used:
Experiment in all cases: crystal structure; crystals from 2.2 M DL-malic acid, pH 6.5, with or without 5 mM PPi (hanging drop); data at 100 K; oligomers read from the asymmetric unit and the crystal packing
[1] = target: Acinetobacter baumannii pyrophosphatase K30R variant (Acinetobacter baumannii) (UniProt V5VHL7)
[2] = target: Acinetobacter baumannii pyrophosphatase K149R variant (Acinetobacter baumannii) (UniProt V5VHL7)
[3] = target: Acinetobacter baumannii pyrophosphatase, wild type (Acinetobacter baumannii) (UniProt V5VHL7)

Acinetobacter baumannii pyrophosphatase K30R variant (from UniProt V5VHL7 5-174) (enzyme)
stoichiometry N [1]: 6 and 3

Acinetobacter baumannii pyrophosphatase K149R variant (from UniProt V5VHL7 5-174) (enzyme)
stoichiometry N [2]: 6

Acinetobacter baumannii pyrophosphatase, wild type (from UniProt V5VHL7 5-174) (enzyme)
stoichiometry N [3]: 6
